# Measured values: publication doi:10.1101/2025.02.24.639830
# System: LeuO (Escherichia coli (ASKA library overexpression strain))
# Experiment: EMSA
substance,measurement,value
leuLABCD promoter region EMSA probe,K half,25 nM
